# Test results reported in publication PMC4150762, “The DEAD-box helicase Ded1 from yeast is an mRNP cap-associated protein that shuttles between the cytoplasm and nucleus” (Nucleic Acids Research, 2014).
# Where two headings read alike, the source gives them in different places.
# T1: eIF4G9 (S. cerevisiae, UniProt P39935 160-492)
# T1 construct: also called eIF4G9 fragment (160–492); shorten version of eIF4G1; source: E. coli (pGEX-1λT), purified
# T1 sequence (looked up): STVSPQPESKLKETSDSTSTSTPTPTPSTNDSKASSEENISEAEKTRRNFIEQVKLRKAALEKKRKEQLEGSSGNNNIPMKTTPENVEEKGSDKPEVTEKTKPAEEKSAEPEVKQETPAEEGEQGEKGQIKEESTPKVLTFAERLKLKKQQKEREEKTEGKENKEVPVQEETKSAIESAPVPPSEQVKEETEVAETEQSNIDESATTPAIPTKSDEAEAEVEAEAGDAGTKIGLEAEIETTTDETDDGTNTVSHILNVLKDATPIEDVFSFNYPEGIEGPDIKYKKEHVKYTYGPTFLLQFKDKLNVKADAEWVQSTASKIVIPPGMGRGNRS
# B1: 1–387-GST fragment of eIF4G1 (domain or fragment, S. cerevisiae, UniProt P39935 1-387, looked up)
# chain: MTDETAHPTQSASKQESAALKQTGDDQQESQQQRGYTNYNNGSNYTQKKPYNSNRPHQQRGGKFGPNRYNNRGNYNGGGSFRGGHMGANSSNVPWTGYYNNYPVYYQPQQMAAAGSAPANPIPVEEKSPVPTKIEITTKSGEHLDLKEQHKAKLQSQERSTVSPQPESKLKETSDSTSTSTPTPTPSTNDSKASSEENISEAEKTRRNFIEQVKLRKAALEKKRKEQLEGSSGNNNIPMKTTPENVEEKGSDKPEVTEKTKPAEEKSAEPEVKQETPAEEGEQGEKGQIKEESTPKVLTFAERLKLKKQQKEREEKTEGKENKEVPVQEETKSAIESAPVPPSEQVKEETEVAETEQSNIDESATTPAIPTKSDEAEAEVEAEAGDA
# notes: not among the constructs of the methods
# B2: GST-eIF4G1 fragment 1-596 (domain or fragment, S. cerevisiae, UniProt P39935 1-596, looked up)
# chain: MTDETAHPTQSASKQESAALKQTGDDQQESQQQRGYTNYNNGSNYTQKKPYNSNRPHQQRGGKFGPNRYNNRGNYNGGGSFRGGHMGANSSNVPWTGYYNNYPVYYQPQQMAAAGSAPANPIPVEEKSPVPTKIEITTKSGEHLDLKEQHKAKLQSQERSTVSPQPESKLKETSDSTSTSTPTPTPSTNDSKASSEENISEAEKTRRNFIEQVKLRKAALEKKRKEQLEGSSGNNNIPMKTTPENVEEKGSDKPEVTEKTKPAEEKSAEPEVKQETPAEEGEQGEKGQIKEESTPKVLTFAERLKLKKQQKEREEKTEGKENKEVPVQEETKSAIESAPVPPSEQVKEETEVAETEQSNIDESATTPAIPTKSDEAEAEVEAEAGDAGTKIGLEAEIETTTDETDDGTNTVSHILNVLKDATPIEDVFSFNYPEGIEGPDIKYKKEHVKYTYGPTFLLQFKDKLNVKADAEWVQSTASKIVIPPGMGRGNRSRDSGRFGNNSSRGHDFRNTSVRNMDDRANSRTSSKRRSKRMNDDRRSNRSYTSRRDRERGSYRNEEKREDDKPKEEVAPLVPSANRWVPKFKSKKTEKKLAPDG
# B3: Cbp80 (557–861) (domain or fragment)
# chain: QLINYYQSLFTGYTVEEDSVRKNDLYFRQEGVPMENTVRKILDYTHKANNSREVTELESILGELKNEYGSIISDFNRFVIILLVQAVTDSGSRSLSHANKYINDLKEDLKTIFAKIELDIETKEYIIIEAVLTFWNANPQTGFLVADAFKYAGLLTSRTIFTFIFNETGLKNNGLIEATAIEAVFRNLSQQISEENESGNNFEFVFERLCTIANSTIDLLDVNADEDIEIPKVNGEMDIDDIEDDKLDLKWKYFTVIGFIKSILRRYSHEYRELADKFIANIDNAIPHESTRRTISNWIQETKEV
# B4: GST-NAB2-HIS6 (natural protein, S. cerevisiae, UniProt P32505 1-525, looked up)
# chain: MSQEQYTENLKVIVAEKLAGIPNFNEDIKYVAEYIVLLIVNGGTVESVVDELASLFDSVSRDTLANVVQTAFFALEALQQGESAENIVSKIRMMNAQSLGQSDIAQQQQQQQQQQQPDIAQQQPQQQPQQQPQQQPQQQPQQQPQQQPQQQPQQQPQLQPLQPQLGTQNAMQTDAPATPSPISAFSGVVNAAAPPQFAPVDNSQRFTQRGGGAVGKNRRGGRGGNRGGRNNNSTRFNPLAKALGMAGESNMNFTPTKKEGRCRLFPHCPLGRSCPHAHPTKVCNEYPNCPKPPGTCEFLHPNEDEELMKEMERTREEFQKRKADLLAAKRKPVQTGIVLCKFGALCSNPSCPFGHPTPANEDAKVIDLMWCDKNLTCDNPECRKAHSSLSKIKEVKPISQKKAAPPPVEKSLEQCKFGTHCTNKRCKYRHARSHIMCREGANCTRIDCLFGHPINEDCRFGVNCKNIYCLFRHPPGRVLPEKKGAAPNSNVPTNERPFALPENAIIENAPPQTSFTHQEQDTEMN
# B5: Pab1 with an amino-terminal His6 tag (natural protein, S. cerevisiae, UniProt P04147 1-577, looked up)
# chain: MADITDKTAEQLENLNIQDDQKQAATGSESQSVENSSASLYVGDLEPSVSEAHLYDIFSPIGSVSSIRVCRDAITKTSLGYAYVNFNDHEAGRKAIEQLNYTPIKGRLCRIMWSQRDPSLRKKGSGNIFIKNLHPDIDNKALYDTFSVFGDILSSKIATDENGKSKGFGFVHFEEEGAAKEAIDALNGMLLNGQEIYVAPHLSRKERDSQLEETKAHYTNLYVKNINSETTDEQFQELFAKFGPIVSASLEKDADGKLKGFGFVNYEKHEDAVKAVEALNDSELNGEKLYVGRAQKKNERMHVLKKQYEAYRLEKMAKYQGVNLFVKNLDDSVDDEKLEEEFAPYGTITSAKVMRTENGKSKGFGFVCFSTPEEATKAITEKNQQIVAGKPLYVAIAQRKDVRRSQLAQQIQARNQMRYQQATAAAAAAAAGMPGQFMPPMFYGVMPPRGVPFNGPNPQQMNPMGGMPKNGMPPQFRNGPVYGVPPQGGFPRNANDNNQFYQQKQRQALGEQLYKKVSAKTSNEEAAGKITGMILDLPPQEVFPLLESDELFEQHYKEASAAYESFKKEQEQQTEQA
# B6: GST-eIF4G1 fragment 882-952 (domain or fragment, S. cerevisiae, UniProt P39935 882-952, looked up)
# chain: RSNSRRTNNSSNRHSFRRDAPPASKDSFITTRTYSQRNSQRAPPPKEEPAAPTSTATNMFSALMGESDDEE
# notes: eIF4G1 of S. cerevisiae, residues 882-952; also called 882–952 fragment; source: E. coli (pGEX-2T), purified on glutathione Sepharose; not shown: GST, N-terminal, kept
# B7: eIF4E with an amino-terminal His6 tag (natural protein, S. cerevisiae, UniProt P07260 1-213, looked up)
# chain: MSVEEVSKKFEENVSVDDTTATPKTVLSDSAHFDVKHPLNTKWTLWYTKPAVDKSESWSDLLRPVTSFQTVEEFWAIIQNIPEPHELPLKSDYHVFRNDVRPEWEDEANAKGGKWSFQLRGKGADIDELWLRTLLAVIGETIDEDDSQINGVVLSIRKGGNKFALWTKSEDKEPLLRIGGKFKQVLKLTDDGHLEFFPHSSANGRHPQPSITL
# notes: eIF4E (CDC33) of S. cerevisiae cloned into the NdeI-BamHI sites of pET15b; also called CDC33; source: E. coli (pET15b), purified on nickel-agarose
# B8: Cbp80 (1–556) (domain or fragment)
# chain: MFNRKRRGDFDEDENYRDFRPRMPKRQRIPPVVQLCKEMMPDIRTIGESVKAFEDDIKFLSEAIMNEYGHEDYFNNALLSTLNAVVVEQPQKQAAIALLTMVVNSKNNVAGKSIINYFFEELQKWCKQTYNDEFKSTSNETGPWNKIKLILRFLSILSPMFLVDELINIYKSLFELSIELNNLDPGNRVPLSEAIYTNTLLNIPYLFFFNRNNDGLRTKVEELLAYVEQNYLVKTTDINLLREYNGEPPYEMVELVRVVLPNVKKALINNLEQLNELFPDWNHLLTPQTGDEGFNDALTLPSVDDLKSFVRLNKNFGSVDSMWKTPRYAFHVYLPNSAGNFETVVPISTYAGQLFNDIIIDLVESLEFNRKEVARQVITLDLFFKAGIFTEPGESIAQLIATYEENPLAPTFKIEDLAIETILGLIFKLPSVSQPFAYFYTLLVDICQNSPKAIAPVFGRAFRFFYSHLDSLDFELKLRYLDWFSIQMSNFNFSWKWNEWEDDSIKFGKYFYNPKVNFAKNLIQKELRLTSNFSEVEDSLPQEFTKYLDTSYIPRD
# B9: GST-eIF4G1 fragment 542-952 (domain or fragment, S. cerevisiae, UniProt P39935 542-952, looked up)
# chain: SYTSRRDRERGSYRNEEKREDDKPKEEVAPLVPSANRWVPKFKSKKTEKKLAPDGKTELLDKDEVERKMKSLLNKLTLEMFDAISSEILAIANISVWETNGETLKAVIEQIFLKACDEPHWSSMYAQLCGKVVKELNPDITDETNEGKTGPKLVLHYLVARCHAEFDKGWTDKLPTNEDGTPLEPEMMSEEYYAAASAKRRGLGLVRFIGFLYRLNLLTGKMMFECFRRLMKDLTDSPSEETLESVVELLNTVGEQFETDSFRTGQATLEGSQLLDSLFGILDNIIQTAKISSRIKFKLIDIKELRHDKNWNSDKKDNGPKTIQQIHEEEERQRQLKNNSRSNSRRTNNSSNRHSFRRDAPPASKDSFITTRTYSQRNSQRAPPPKEEPAAPTSTATNMFSALMGESDDEE
# B10: Gle1 (recombinant) (natural protein, S. cerevisiae, UniProt Q12315 1-538, looked up)
# chain: MRFVFDEVFNSDTDSPEFEETCSTTSSTSSQCPTPEPSPAIKLPSFTKVGTKKLVNESVVILDPALENALRDLNLQSKLIPINEPIVAASSIIVPHSTNMPLPRASHSSLLDNAKNSNATAPLLEAIEESFQRKMQNLVLANQKEIQSIRENKRRVEEQRKRKEEEERKRKEAEEKAKREQELLRQKKDEEERKRKEAEAKLAQQKQEEERKKIEEQNEKERQLKKEHEAKLLQQKDKLGKAVTNFDKISKMFWHYKDKIAQIKQDIVLPIKKADVNVRNLLSRHKRKINPKFGQLTNSNQQLFKIQNELTQLINDTKGDSLAYHWILNFIAKAVVHQAETEVRVKPESALPLGKLTLYLLVQFPELQELFMARLVKKCPFVIGFTCEIDTEKGRQNMGWKRNNENKWEDNTSYDERMGGILSLFAIITRLQLPQEFITTTSHPFPIALSWHILARICNTPLNLITNTHFVILGSWWDAAAVQFLQAYGNQASKLLILIGEELTSRMAEKKYVGAARLRILLEAWQNNNMESFPEMSP
# What was measured:
# Ded1-His6 [1] = biological target: T2, Ded1-His6 (S. cerevisiae, UniProt P06634 1-604); test: pull-down; purified GST-eIF4G1 fragments bound to glutathione Sepharose beads, incubated with Ded1, eluted with 10 mM reduced glutathione; Coomassie-stained SDS PAGE, verified by western blot for Ded1; same results with or without RNase I or AMP-PNP; details: both partners purified
# T2 construct: Ded1 of S. cerevisiae, recombinant, expressed from pET22b; Printed name Ded1-His6; source: E. coli (pET22b), purified on nickel-agarose
# T2 sequence (P06634 whole entry, the tested form may be a part): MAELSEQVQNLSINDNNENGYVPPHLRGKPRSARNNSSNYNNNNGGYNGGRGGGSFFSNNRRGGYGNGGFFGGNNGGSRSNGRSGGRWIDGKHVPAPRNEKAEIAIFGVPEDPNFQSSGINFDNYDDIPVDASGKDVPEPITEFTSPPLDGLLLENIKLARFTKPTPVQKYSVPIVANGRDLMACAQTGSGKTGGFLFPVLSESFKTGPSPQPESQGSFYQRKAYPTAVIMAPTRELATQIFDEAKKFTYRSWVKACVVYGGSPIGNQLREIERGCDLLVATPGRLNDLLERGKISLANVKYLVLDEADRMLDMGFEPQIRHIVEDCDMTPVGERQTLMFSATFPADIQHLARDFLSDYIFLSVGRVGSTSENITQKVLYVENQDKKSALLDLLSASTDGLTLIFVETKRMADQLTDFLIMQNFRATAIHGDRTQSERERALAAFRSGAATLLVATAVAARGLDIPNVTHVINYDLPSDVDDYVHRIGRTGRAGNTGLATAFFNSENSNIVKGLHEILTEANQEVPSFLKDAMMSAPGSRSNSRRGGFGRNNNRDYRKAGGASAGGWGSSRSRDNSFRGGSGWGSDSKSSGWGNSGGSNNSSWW
# Ded1-His6 [2] = biological target: T2, Ded1-His6; test: cell-based or functional assay
# Ded1-His6 [3] = biological target: T2, Ded1-His6
# eIF4G9 = biological target: T1, eIF4G9; test: pull-down; 7-methyl-GTP Sepharose beads loaded with 5 μg purified eIF4E or Cbp20, 5 μg of the purified proteins added with 50 U RNase I, 90 min on ice, TpB buffer (20 mM HEPES pH 7.9, 100 mM KCl, 2 mM MgCl2, 2 mM DTT), eluted with 1 mM 7-methyl-GTP; Coomassie-stained SDS PAGE; details: both partners purified
Binder,"RNA-dependent ATPase activity, % Ded1 (Ded1-His6 [2])",other results
B1,–,binding result (Ded1-His6 [1]): binds
B2,206%,–
B3,–,"RNA-dependent ATPase activity, % Ded1 (Ded1-His6 [3]): 144%"
B4,150%,–
B5,119%,–
B6,–,binding result (Ded1-His6 [1]): binds
B7,105%,binding result (eIF4G9): binds
B8,–,"RNA-dependent ATPase activity, % Ded1 (Ded1-His6 [3]): 220%"
B9,141%,–
B10,191%,–
